Values of other authors, collected in article PMC2654521.
pKd, pKi: −log10 of the molar value. Where “and” joins values, the source holds several entries; their conditions need not be identical. Equal values may be shown once. Read-outs that look alike come from different tables or passages of the source.

Tests used:
[1] = target: N-type calcium channel (Rattus norvegicus) (UniProt Q02294); experiment: radioligand
[2] = target: N-type calcium channel (Rattus norvegicus) (UniProt Q02294); experiment: radioligand; remark: listed apart in the source

Sequence of UniProt Q02294 (Q02294 whole entry): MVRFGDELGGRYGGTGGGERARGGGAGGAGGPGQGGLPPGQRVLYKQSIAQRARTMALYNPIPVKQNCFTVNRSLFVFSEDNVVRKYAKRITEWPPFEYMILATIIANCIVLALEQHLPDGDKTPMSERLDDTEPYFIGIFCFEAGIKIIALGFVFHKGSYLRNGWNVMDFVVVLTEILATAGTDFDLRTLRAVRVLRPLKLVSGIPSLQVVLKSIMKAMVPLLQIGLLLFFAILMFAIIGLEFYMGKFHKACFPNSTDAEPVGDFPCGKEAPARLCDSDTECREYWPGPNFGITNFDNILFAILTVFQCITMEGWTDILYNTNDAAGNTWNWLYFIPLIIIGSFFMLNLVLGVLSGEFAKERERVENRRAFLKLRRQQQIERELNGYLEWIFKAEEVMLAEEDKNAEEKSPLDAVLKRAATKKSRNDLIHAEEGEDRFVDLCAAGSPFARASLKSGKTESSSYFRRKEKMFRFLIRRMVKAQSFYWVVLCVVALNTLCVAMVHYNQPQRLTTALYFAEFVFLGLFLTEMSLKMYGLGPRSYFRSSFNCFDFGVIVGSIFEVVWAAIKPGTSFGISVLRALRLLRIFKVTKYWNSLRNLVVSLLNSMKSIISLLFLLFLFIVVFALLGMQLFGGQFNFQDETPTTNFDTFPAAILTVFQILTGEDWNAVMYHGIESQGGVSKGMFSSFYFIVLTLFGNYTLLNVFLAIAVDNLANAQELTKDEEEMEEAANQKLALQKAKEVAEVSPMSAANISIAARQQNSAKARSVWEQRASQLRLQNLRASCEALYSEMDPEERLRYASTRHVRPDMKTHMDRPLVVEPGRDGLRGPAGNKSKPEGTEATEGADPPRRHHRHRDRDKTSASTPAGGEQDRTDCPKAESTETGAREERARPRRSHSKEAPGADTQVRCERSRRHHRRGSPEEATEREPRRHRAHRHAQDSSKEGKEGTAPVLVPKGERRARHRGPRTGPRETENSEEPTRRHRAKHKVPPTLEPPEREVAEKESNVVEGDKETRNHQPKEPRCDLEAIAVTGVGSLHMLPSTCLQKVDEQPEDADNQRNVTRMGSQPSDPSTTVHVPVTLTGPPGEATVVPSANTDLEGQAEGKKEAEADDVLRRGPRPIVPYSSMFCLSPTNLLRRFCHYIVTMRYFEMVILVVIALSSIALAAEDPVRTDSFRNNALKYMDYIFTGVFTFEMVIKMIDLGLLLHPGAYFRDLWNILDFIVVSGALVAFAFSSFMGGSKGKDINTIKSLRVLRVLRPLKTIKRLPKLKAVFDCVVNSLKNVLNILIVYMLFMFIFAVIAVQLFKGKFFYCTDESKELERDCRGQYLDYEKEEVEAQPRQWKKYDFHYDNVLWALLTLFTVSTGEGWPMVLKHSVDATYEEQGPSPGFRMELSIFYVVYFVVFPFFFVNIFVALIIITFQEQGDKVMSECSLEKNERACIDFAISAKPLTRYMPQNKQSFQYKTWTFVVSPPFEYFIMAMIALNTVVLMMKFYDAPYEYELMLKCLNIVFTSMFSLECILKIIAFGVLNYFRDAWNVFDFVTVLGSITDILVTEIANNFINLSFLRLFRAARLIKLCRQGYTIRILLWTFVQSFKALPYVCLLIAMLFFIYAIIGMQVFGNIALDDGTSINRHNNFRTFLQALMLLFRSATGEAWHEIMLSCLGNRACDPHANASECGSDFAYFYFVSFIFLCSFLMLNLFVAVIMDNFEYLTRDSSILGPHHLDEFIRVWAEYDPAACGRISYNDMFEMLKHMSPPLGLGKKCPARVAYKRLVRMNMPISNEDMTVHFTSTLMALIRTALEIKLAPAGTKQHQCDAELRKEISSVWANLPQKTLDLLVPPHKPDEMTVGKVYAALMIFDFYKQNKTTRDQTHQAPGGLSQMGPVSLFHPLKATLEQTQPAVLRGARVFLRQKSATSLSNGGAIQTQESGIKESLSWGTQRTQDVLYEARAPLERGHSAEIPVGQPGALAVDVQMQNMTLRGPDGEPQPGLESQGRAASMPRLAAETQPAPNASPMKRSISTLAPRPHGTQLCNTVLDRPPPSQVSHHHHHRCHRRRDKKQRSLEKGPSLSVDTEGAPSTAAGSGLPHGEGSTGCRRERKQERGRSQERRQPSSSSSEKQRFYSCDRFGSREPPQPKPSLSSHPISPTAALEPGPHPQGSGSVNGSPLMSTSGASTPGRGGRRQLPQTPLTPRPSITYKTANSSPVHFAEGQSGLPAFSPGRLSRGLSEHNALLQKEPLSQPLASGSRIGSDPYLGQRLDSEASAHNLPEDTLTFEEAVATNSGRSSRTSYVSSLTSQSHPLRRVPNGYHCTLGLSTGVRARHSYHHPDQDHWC

## ziconotide (omega-conotoxin MVIIA) (from UniProt P05484)
[1]
  pKd: 11.15 and 10.74
[2]
  pKd: 11.96 and 11.05
  pKi: 12.00
